From US20090092595A1, “Suppression of sPLA2-integrin binding for treating an inflammatory condition” (REGENTS OF THE UNIVERSITY OF CALIFORNIA, priority 2007, published 2009)

System: mutant α4 subunit (Tyr-189 and Gly-190 to Ala)
Test: Adhesion of CHO cells expressing wt or mutant α4 to sPLA2-IIA
Format: cell-based
Experimental: FIG. 5. sPLA2-IIA binding to integrin α4β1. a) Cells expressing recombinant α4β1 adhered to wt sPLA2-IIA better than cells expressing other recombinant integrins. We used transfected K562 cells clonally express different human integrins for adhesion assays. Low background adhesion to BSA was subtracted. […] Wells of 96-well microtiter plate were coated with VCAM-1 and FN-GST, and incubated with U937 cells (1×10^4 cells/plate) in the presence of the increasing concentrations of sPLA2-IIA for 1 h at 37° C. Adherent cells were quantified using endogenous phosphatase after gently rinsing the well to remove unbound cells. Data is shown as means+/−SEM of triplicate experiments. *P=0.0101 and **P<0.0001 by t-test. c) Amino acid sequence in the α4 subunit that is critical for VCAM-1 and CS-1 binding is also critical for sPLA2-IIA binding. CHO cells that clonally express wt or mutant α4 (Irie, A. et al., Embo J, 14(22): 5550-5556 (1995)) were used for adhesion assays. Data is shown as means+/−SEM of triplicate experiments. Similar results were obtained using K562 cells expressing α4 mutants (not shown).
Other methods We performed docking simulation of interaction between sPLA2-IIA and integrin αvβ3 using the AutoDock3 as previously described (Mori, S. et al., J Biol Chem, in press (2008)). […]

B1: wt sPLA2-IIA: Secretory phospholipase A2 group IIA, wild type, recombinant from bacteria BL21, refolded (protein)
chain: NLVNFHRMIKLTTGKEAALSYGFYGCHCGVGGRGSPKDATDRCCVTHDCCYKRLEKRGCGTKFLSYKFSNSGSRITCAKQDSCRSQLCECDKAAATCFARNKTTYNKKYQYYSNKHCRGSTPRC
modifications: left off: small tags and cut ends
  binding of α4 mutants (Tyr-189 and Gly-190 to Ala) to sPLA2-IIA: blocked binding
